# Values of other authors in publication PMC4103764.
# Target: SARS 3C-like protease (SARS coronavirus) (UniProt P0C6X7)
# Assay: ITC
substance,measurement,value
SARS 3C-like protease (from UniProt P0C6X7),Kd,21.4 µM
